# Results from US20030064396A1 (published 2003).
# Tests used:
# [1] = biological target: human AR fragment coding for the amino acids 325 to 919 (AR2) (human) (UniProt P10275); test: cell-based or functional assay
# [2] = biological target: T1, human androgen receptor, complete (expression vector pSG5AR) (human, UniProt P10275 1-920, 35S-methionine-labeled in the pull-down of Example 4 (in vitro translated, T7 TNT reticulocyte lysate)); test: GST pull-down of 35S-labelled AR; binding ratio against GST-empty, corrected for the protein amounts by Western blot, Exp. 3
# T1 construct: mature; also called complete AR; 35S-methionine-labeled androgen receptor
# T1 sequence (looked up): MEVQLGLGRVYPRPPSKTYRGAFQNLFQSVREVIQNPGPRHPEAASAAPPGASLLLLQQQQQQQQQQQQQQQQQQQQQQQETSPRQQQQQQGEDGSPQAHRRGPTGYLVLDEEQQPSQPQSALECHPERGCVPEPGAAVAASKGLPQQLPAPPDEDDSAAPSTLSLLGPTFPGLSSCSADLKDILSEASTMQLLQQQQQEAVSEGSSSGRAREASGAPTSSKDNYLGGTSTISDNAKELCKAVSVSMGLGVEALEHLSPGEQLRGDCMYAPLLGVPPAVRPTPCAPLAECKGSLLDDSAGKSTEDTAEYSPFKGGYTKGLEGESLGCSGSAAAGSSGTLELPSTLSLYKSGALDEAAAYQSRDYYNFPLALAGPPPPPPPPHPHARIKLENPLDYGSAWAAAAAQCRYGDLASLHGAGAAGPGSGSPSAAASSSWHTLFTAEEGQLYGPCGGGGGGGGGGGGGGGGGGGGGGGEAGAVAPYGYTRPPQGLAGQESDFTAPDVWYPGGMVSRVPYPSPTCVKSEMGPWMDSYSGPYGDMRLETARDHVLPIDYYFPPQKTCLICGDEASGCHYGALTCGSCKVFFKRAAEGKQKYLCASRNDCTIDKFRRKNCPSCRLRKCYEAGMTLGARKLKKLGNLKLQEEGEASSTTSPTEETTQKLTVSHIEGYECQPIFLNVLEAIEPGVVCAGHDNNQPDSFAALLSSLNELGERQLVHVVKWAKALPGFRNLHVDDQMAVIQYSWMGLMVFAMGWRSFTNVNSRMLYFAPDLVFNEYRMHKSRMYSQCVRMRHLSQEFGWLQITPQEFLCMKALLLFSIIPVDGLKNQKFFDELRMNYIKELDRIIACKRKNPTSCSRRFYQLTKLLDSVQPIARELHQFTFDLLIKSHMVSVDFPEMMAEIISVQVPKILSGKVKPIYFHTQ
# Excerpt: (§1) A GST pull-down experiment is characterized by an experimental procedure, which allows binding of an in vitro expressed GST fusion protein to a similar in vitro expressed and radioactively labeled protein, subsequent separation from non-interacting proteins and detection and identification of the bound protein as a measure of the binding.
# [3] = biological target: T1, human androgen receptor, complete …; test: GST pull-down of 35S-labelled AR; binding ratio against GST-empty, corrected for the protein amounts by Western blot, Exp. 2
# Excerpt: as §1
# [4] = biological target: T1, human androgen receptor, complete …; test: GST pull-down of 35S-labelled AR; binding ratio against GST-empty, corrected for the protein amounts by Western blot, Exp. 1
# Excerpt: as §1
# [5] = biological target: T1, human androgen receptor, complete …; test: GST pull-down of 35S-labelled AR; binding ratio against GST-empty, corrected for the protein amounts by Western blot, Exp. 4
# Excerpt: as §1
# [6] = biological target: T1, human androgen receptor, complete …; test: mammal hybrid test, VP16 fusion, luciferase reporter in PC3 cells
molecule,measurement,setting,value
two-hybrid clone with an insert comprising 327 base pairs coding for part of the ORF of KIAA1380 (ARAP3) (from UniProt Q15652 1915-2023),yeast-2-hybrid screen with and without 10^-6 mol DHT; lacZ-positive clones (β-galactosidase assay),[1],40 times
"GST-ARAP3: ARAP3 fragment (AS 1735 to 1840 of Seq. ID No. 14) as a GST fusion protein (vector pGEX-KG) (other, also called ARAP3 fusion protein; GST-ARAP3 spherical particles; not shown: glutathione S-transferase (GST) tag of the vector pGEX-KG (Pharmacia)) LDAMHTLREKYGIKSHCHCTNKQNLQVGNFPTMNGVSQVLQNVLNHSNKISLCMPESQQQNTPPKSEKNGGSSPESDVGTDNKLTPPESQSPLHWLADLAEQKARE",Ratio GST-ARAP3/GST-empty,[2],> 100 Ratio
same,Ratio GST-ARAP3/GST-empty,[3],1120 Ratio
same,Ratio GST-ARAP3/GST-empty,[4],26.5 Ratio
same,Ratio GST-ARAP3/GST-empty,[5],> 100 Ratio
"ARAP3 fragment (AS 1430-1539 of Seq. ID No. 20) as fusion protein with VP16 (CMX-VP16-ARAP3-III) (other, Expressed in transfected human PC3 cells; also called ID No. 20; not shown: VP16 fusion partner from the vector CMX-VP16) DLLDAMHTLREKYGIKSHCHCTNKQNLQVGNFPTMNGVSQVLQNVLNHSNKISLCMPESQQQNTPPKSEKNGGSSPESDVGTDNKLTPPESQSPLHWLADLAEQKAREEK",binding result,[6],binds
